Test results taken from patent US20080063646A1 (AbbVie / Abbott, published 2008).
Where a chain is given by its changes, count along the chain named. Names may count otherwise. “And” between values parts separate entries of the source, which are not always exact repeats. Equal entries are not always repeated.

T1: recombinant human IP-10 (R&D Systems) (human, UniProt P02778 22-98)
T1 sequence: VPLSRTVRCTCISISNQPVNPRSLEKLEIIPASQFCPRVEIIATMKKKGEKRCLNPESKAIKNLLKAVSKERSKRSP

T2: B lymphocyte chemokine (BLC) (UniProt O43927 23-109, limits assumed)
T2 sequence (looked up): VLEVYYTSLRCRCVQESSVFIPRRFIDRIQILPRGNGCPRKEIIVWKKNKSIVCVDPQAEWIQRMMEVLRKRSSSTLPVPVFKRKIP

B1: murine monoclonal antibody AIP12 (antibody, V domains shown)
VH: QIQLVQSGPELKKPGETVKISCKASGYTFTDYSMHWVKQAPGKGLKWMGWINTETGEPTYADDFKGRFAFSLETSASTAYLQINNLKNEDTATYFCARNYDYDGYFDVWGAGTTVTVSS
VL: DIQMTQSPSSLSASLGGKVTITCKASQDINKYIAWYQHKPGKGPRLLIHYTSTLQPGIPSRFSGSGSGRDYSFSISNLEPEDIATYYCLQYDNLLFTFGSGTKLEIK
notes: Mouse hybridoma antibody; Mouse IgG1/kappa is used as its isotype control; also called MuAIP12; MUAIP12
B2: murine monoclonal antibody AIP13 (antibody, V domains shown)
VH: B1 VH with T55I, G104A
VL: B1 VL with S26D, K42R, I48L, Y50H, E81A, N93S
notes: Mouse hybridoma antibody; Mouse IgG1/kappa is used as its isotype control; also called MuAIP13
B3: HuAIP12 G104A variant antibody (antibody, V domains shown)
VH: EVQLVQSGAEVKKPGATVKISCKVSGYTFTDYSMHWVRQAPGKGLKWMGWINTETGEPTYADDFKGRFTFTLDTSTSTAYMELSSLRSEDTAVYYCARNYDYDAYFDVWGQGTTVTVSS
VL: DIQMTQSPSSLSASVGDRVTITCKASQDINKYIAWYQQKPGKAPKLLIHYTSTLQPGIPSRFSGSGSGRDYTFTISSLQPEDIATYYCLQYDNLLFTFGQGTKLEIK
notes: Human gamma-1 / kappa, transiently expressed in 293-H cells
B4: humanized monoclonal antibody HuAIP12 (antibody, IgG1, V domains shown)
VH: B3 VH with A104G
VL: B3 VL
B5: humanized monoclonal antibody HuAIP13 (antibody, IgG1, V domains shown)
VH: B3 VH with T55I
VL: B3 VL with S26D, I48L, Y50H, N93S

How the values were obtained:
[1] = target: T1, recombinant human IP-10 (R&D Systems); experiment: cell-based or functional assay
[2] = target: T2, B lymphocyte chemokine (BLC); experiment: ELISA with hybridoma supernatants
[3] = target: T1, recombinant human IP-10 (R&D Systems); experiment: Biacore

Binder | IC50 of inhibition of chemotaxis, donor 215 [1] [ng/mL] | IC50 of inhibition of chemotaxis, donor 318 [1] [ng/mL] | IC50 of inhibition of chemotaxis, donor 1012 [1] [ng/mL] | IC50 of inhibition of chemotaxis, donor 1022 [1] | binding result [2] | fold faster off-rate (kd) than unmodified HuAIP12 [3] [fold] | fold higher Kd than unmodified HuAIP12 [3] [fold] | fold slower on-rate (ka) than unmodified HuAIP12 [3] [fold] | fold weaker monovalent interaction than unmodified HuAIP12 [3] [fold]
B1 | 130 | 41 | 91 | 135 ng/mL and 51 ng/mL and 86 ng/mL | no binding |  |  |  | 
B2 | 260 | 139 | 84 | 229 ng/mL and 154 ng/mL and 78 ng/mL | no binding |  |  |  | 
B3 |  |  |  |  |  | ~2 | > 20 | ~10 | 20
B4 | 142 | 38 | 73 |  |  |  |  |  | 
B5 | 139 | 45 | 77 |  |  |  |  |  | 
